Test results reported in patent US8257714B2, “Compositions and methods for immunotherapy of cancer and infectious diseases” (priority 2003, dated 2012).
Marks after values point to notes of the source that are not given here.

Legend:
[1] = tested on: Mycobacterium tuberculosis Erdman strain; assay: Tuberculosis in mice; format: in vivo; settings: 0.1, 1.0 or 10.0 ng i.p. days 1-5; day 0, 21 and 42
Method: Groups of mice were exposed to Mycobacterium tuberculosis Erdman strain (M.tb) by inhalation on day 0. […] A control group of mice received vehicle only. On day 0, 21 and 42 the colony forming units (cfu) of M.tb in the lung were determined.

[2] = Experimental autoimmune encephalomyelitis (EAE) model; format: in vivo, SJL mice
Method: Treatments were given daily for 5 days. Linomide is a drug that is known to inhibit EAE and is used as a positive control. […] Severity of EAE is measured by means of the EAE score which starts at […] and increases to a score of 5 when death occurs. For ethical reasons mice are sacrificed when a score of 4 is reached.

[3] = Stability of E1 in human serum albumin; format: physicochemical; settings: for loss of activity: in the presence of HSA
Text: Higher temperature studies also indicate remarkable stability.

[4] = tested on: influenza virus A/NWS/33 (HINI); assay: Influenza infection in mice; format: in vivo, BALB/c mice; settings: for Mean Day to Death ± SD: mice dying before day 21; for decline in arterial oxygen saturation: days 3-11
Text: Specific pathogen-free female BALB/c mice were infected intranasally with an LD90 dose of influenza virus A/NWS/33 (HINI). […] Placebo treated mice received bovine serum albumin in phosphate-buffered saline. Mice were observed daily for death.

[5] = 100 ng/day i.p., schedule 0, 3, 6
[6] = 100 ng/day i.p., schedule −2, 0, 3, 6
[7] = 1,000 ng/day i.p., schedule 0, 3, 6

B1: ARP E1: recombinant E. tenella ARP from E. coli clone E1 (ATCC PTA-6120), SEQ ID NO:28 (protein, listed as Eimeria tenella)
chain: MGEEADTQAWDTSVREWLVDTGRVFAGGVASIADGCRLFGAAVEGEGNAWEELVKTNYQIEVPQEDGTSISVDCDEAETLRAVVDGRAPNGVYIGGTKYKLAEVKRDFTFNDQNYDVAILGKNKGGGFLIKTPNENVVIALYDEEKEQNKADALTTALNFAEYLYQGGF
In the case of B1, the “cfu of M.tb in the lung versus control group” value [1] is reported as “no statistically significant difference”, the “Day 15 EAE Score ± SD” value ([2]; 0.1 μg i.p. daily for 5 days from day 10) is reported as 2.7 ± 1.3 and the “Day 15 EAE Score ± SD” value ([2]; 1.0 μg i.p. daily for 5 days from day 10) is reported as 1.5 ± 1.6. The “Day 15 EAE Score ± SD” value ([2]; 10.0 μg i.p. daily for 5 days from day 10) was 1.1 ± 1.5, the loss in activity ([3]; 1 μg/mL, HSA 1, 5 or 10% w/v, 4° C., 4, 11, 25, 39 and 54 days, preliminary) was “no loss in activity” and the “storage time without loss of activity (DC assay)” value ([3]; 1 μg/ml with 3% HSA, 4° C.) was “at least 55 weeks”. For the same molecule, the loss of activity ([3]; 2 hours 70° C.) was “No loss of activity”, the loss of activity ([3]; 6 hours at 55° C.) was “No loss of activity” and the loss of activity ([3]; 41 days at 37° C.) was “No loss of activity”. The Survive/Total [4, 5] was 2/10, the “Mean Day to Death ± SD” value [4, 5] was 12.1 ± 1.6 days and the Survive/Total [4, 6] was 0/10. For the same molecule, the “Mean Day to Death ± SD” value [4, 6] was 12.3 ± 1.2 days, the “decline in arterial oxygen saturation” value ([4]; 1,000 ng) was “statistically significant reduction” and the Survive/Total [4, 7] was 3/10. For the same molecule, the “Mean Day to Death ± SD” value [4, 7] was 12.7 ± 2.7 days, the “decline in arterial oxygen saturation” value ([4]; 10,000 ng) was “statistically significant reduction” and the Survive/Total ([4]; 10,000 ng/day i.p., schedule 0, 3, 6, P < 0.05) was 5/10*. For the same molecule, the “Mean Day to Death ± SD” value ([4]; 10,000 ng/day i.p., schedule 0, 3, 6) was 12.0 ± 1.4 days.
